# Data as given in patent publication EP0830146B1.
# Experiments:
# [1] = target: human CD3 on Jurkat cells (human) (UniProt P07766); test: competition with 125I-UCHT1 tracer on Jurkat cells; competitor at 1 nM
# [2] = target: human CD3 on Jurkat cells (human) (UniProt P07766); test: competition with 125I-UCHT1 tracer on Jurkat cells; competitor at 100 nM
# [3] = target: human CD3 on Jurkat cells (human) (UniProt P07766); test: cell-based or functional assay
Substance,% of 125I-UCHT1 bound [1] [%],% of 125I-UCHT1 bound [2] [%],"difference in IC50 against UCHT1-CRM9, protein synthesis inhibition [3] [fold]","protein synthesis (% of controls), no serum, 1 x 10^-10 M on Jurkat cells (% of controls) [3]"
scUCHT1 (from UniProt P01871 106-453),80,0,–,–
UCHT1 (antibody),80,0,–,–
sFv-DT390 (from UniProt P00588 1-390),–,–,16,18
